From PMC4509486, “Inside-out Ca^2+ signalling prompted by STIM1 conformational switch” (Nature Communications, 2015)
Changes are numbered by the printed parent chain. In names and notes the source's numbering stands.

Experiments:
[1] = target: the molecule itself; assay: SEC-MALS; Superdex 200 10/300 GL; 500 μl of 10–100 μM protein; 20 mM Tris-HCl pH 7.3, 150 mM NaCl, 2 mM dithiothreitol, 0.6% N-lauroylsarcosine; 0.3 ml/min
[2] = target: the molecule itself; assay: cross-linking; copper-phenanthroline (1 mM CuSO4/3 mM 1,10-phenanthroline) disulfide cross-linking of purified protein (1 mg/ml) in 20 mM HEPES pH 7.4, 150 mM NaCl, 1 mM TCEP, on ice 15 min; non-reducing SDS-PAGE; efficiency = dimer/(monomer + dimer)
[3] = target: the molecule itself; assay: FRET or BRET; inter-subunit FRET between FITC- and TMR-labelled monocysteine TM-CC1 in PBS pH 7.3, 1% OG, 1 mM TCEP; excitation 475 nm
[4] = target: the molecule itself; assay: SEC + native gel or EMSA; in vitro, with or without Ca^2+; detergents needed to keep the proteins soluble

B1: GB1-TM-CC1 (STIM1 residues 209–310), wild type (domain or fragment, UniProt Q13586 209-310, looked up)
chain: NHLKDFMLVVSIVIGVGGCWFAYIQNRYSKEHMKKMMKDLEGLHRAEQSLHDLQERLHKAQEEHRTVEVEKVHLEKKLRDEINLAKQEAQRLKELREGTENE
notes: STIM1 residues 209-310 (transmembrane domain and CC1); also called STIM1_(209–310); WT; source: E. coli BL21 (DE3), purified (Ni-NTA, gel filtration); not shown: GB1, N-terminal, kept
stoichiometry N [1]: 2

B2: GB1-TM-CC1 (STIM1 residues 209–310) C227W (domain or fragment, UniProt Q13586 209-310, looked up)
chain: B1 chain with C19W
notes: STIM1 residues 209-310; also called TM-CC1-C227W; source: E. coli BL21 (DE3), purified (Ni-NTA, gel filtration); not shown: GB1, N-terminal, kept
stoichiometry N [1]: 2

B3: GB1-TM-CC1 monocysteine variant I220C on the C227W background (domain or fragment, UniProt Q13586 209-310, looked up)
chain: B1 chain with I12C, C19W
notes: STIM1 residues 209-310; also called I220C (C227W); source: E. coli BL21 (DE3), purified; not shown: GB1, N-terminal, kept
binding result [2]: binds

B4: TM-CC1 monocysteine variant N234C on the C227W background, labelled with FITC or TMR (domain or fragment, UniProt Q13586 209-310, looked up)
chain: B1 chain with C19W, N26C
modifications: FITC-maleimide or TMR-maleimide on the single cysteine (N234C)
notes: STIM1 residues 209-310 (TM-CC1); also called N234C (C227W TM-CC1); source: E. coli BL21 (DE3), purified, dye-labelled
binding result [3]: binds

B5: GB1-TM-CC1 monocysteine variant I220C on the C227S background (domain or fragment, UniProt Q13586 209-310, looked up)
chain: B1 chain with I12C, C19S
notes: STIM1 residues 209-310; also called I220C (C227S); source: E. coli BL21 (DE3), purified; not shown: GB1, N-terminal, kept
binding result [2]: binds

B6: GB1-TM-CC1 monocysteine variant F229C on the C227W background (domain or fragment, UniProt Q13586 209-310, looked up)
chain: B1 chain with C19W, F21C
notes: STIM1 residues 209-310; also called F229C (C227W); source: E. coli BL21 (DE3), purified; not shown: GB1, N-terminal, kept
binding result [2]: binds

B7: GB1-TM-CC1 monocysteine variant F229C on the C227S background (domain or fragment, UniProt Q13586 209-310, looked up)
chain: B1 chain with C19S, F21C
notes: STIM1 residues 209-310; also called F229C (C227S); source: E. coli BL21 (DE3), purified; not shown: GB1, N-terminal, kept
binding result [2]: binds

B8: TM-CC1 monocysteine variant F214C on the C227W background, labelled with FITC or TMR (domain or fragment, UniProt Q13586 209-310, looked up)
chain: B1 chain with F6C, C19W
modifications: FITC-maleimide or TMR-maleimide on the single cysteine (F214C)
notes: STIM1 residues 209-310 (TM-CC1); also called F214C (C227W TM-CC1); source: E. coli BL21 (DE3), purified, dye-labelled
binding result [3]: binds

B9: STIM1 1–342 (characterized in vitro) (domain or fragment, UniProt Q13586 23-342, looked up)
chain: LSHSHSEKATGTSSGANSEESTAAEFCRIDKPLCHSEDEKLSFEAVRNIHKLMDDDANGDVDVEESDEFLREDLNYHDPTVKHSTFHGEDKLISVEDLWKAWKSSEVYNWTVDEVVQWLITYVELPQYEETFRKLQLSGHAMPRLAVTNTTMTGTVLKMTDRSHRQKLQLKALDTVLFGPPLLTRHNHLKDFMLVVSIVIGVGGCWFAYIQNRYSKEHMKKMMKDLEGLHRAEQSLHDLQERLHKAQEEHRTVEVEKVHLEKKLRDEINLAKQEAQRLKELREGTENERSRQKYAEEELEQVREALRKAEKELESHSSWY
notes: signal peptide in the construct; it may be the CFP fusion m18
stoichiometry N [4]: 2
